Source: patent publication US9371393B2, “Class I anti-CEA antibodies and uses thereof” (Immunomedics, Inc., priority 2009, dated 2016)
[ ]: non-standard residue; d: D form. The star is where a group is joined. HSG = histaminyl-succinyl-glycine, O=C(CCC(=O)NCC(=O)*)NCCc1c[nH]cn1; DTPA = O=C(O)CN(CCN(CC(=O)O)CC(=O)O)CCN(CC(=O)O)CC(=O)*

Key:
[1] = Stability of purified 18F-labeled IMP 272 in water; format: physicochemical; settings: 25° C., 40 min
Experimental: The labeled peptide was purified by applying the labeled peptide solution onto a 1 cc (30 mg) WATERS® HLB column (Part #186001879) and washing with 300 μL water to remove unbound F-18. The peptide was eluted by washing the column with 2×100 μL 1:1 EtOH/H2O. The purified peptide was incubated in water at 25° C. and analyzed by reverse phase HPLC (not shown). […] After 40 min incubation in water about 17% of the ^18F was released from the peptide, while 83% was retained (not shown).

hMN-14×679 = assay: Antibody binding of 18F-labeled IMP 272 by size exclusion HPLC, hMN-14×679
Experimental: (§1) The peptide (16 μL 2 mM IMP 272, 48 μg) was labeled with ^18F and analyzed for antibody binding by size exclusion HPLC.

[2] = Stability of 18F-labeled IMP 272 in PBS; format: physicochemical; settings: room temperature, 150 μL PBS, ~1 hr
Experimental: F-18 Labeling of IMP 272—A 3 μL aliquot of the aluminum stock solution was placed in a REACTI-VIAL™ and mixed with 50 μL ^18F (as received) and 3 μL of the IMP 272 solution. The solution was heated in a heating block at 110° C. for 15 min and analyzed by reverse phase HPLC. […] An additional 10 μL of the IMP 272 solution was added to the reaction and it was heated again and analyzed by reverse phase HPLC (not shown). […] The remainder of the peptide solution was incubated at room temperature with 150 μL PBS for ˜1 hr and then examined by reverse phase HPLC.

hMN-14×734 = assay: Antibody binding of 18F-labeled IMP 272 by size exclusion HPLC, hMN-14×734
Experimental: as §1

RIIα dimers (DDD) = RIIα dimers (DDD) (Homo sapiens, UniProt P13861); settings: Alto et al. 2003; read-out: affinity / binding constant for RIIα dimers (DDD); cited from earlier work
RIIα dimers (DDD), sequence (P13861 whole entry): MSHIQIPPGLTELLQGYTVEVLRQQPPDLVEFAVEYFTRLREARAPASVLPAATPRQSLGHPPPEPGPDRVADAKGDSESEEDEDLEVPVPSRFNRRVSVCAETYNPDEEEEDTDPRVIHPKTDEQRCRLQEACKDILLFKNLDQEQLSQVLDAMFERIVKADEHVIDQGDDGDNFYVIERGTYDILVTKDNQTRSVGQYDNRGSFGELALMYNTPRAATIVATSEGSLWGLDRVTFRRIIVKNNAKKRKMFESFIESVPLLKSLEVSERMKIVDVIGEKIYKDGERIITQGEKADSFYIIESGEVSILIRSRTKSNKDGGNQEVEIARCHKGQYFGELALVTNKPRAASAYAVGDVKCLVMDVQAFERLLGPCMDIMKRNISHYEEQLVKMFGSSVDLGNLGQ

[3] = system: GW-39 human colonic carcinoma; assay: GW-39 intrapulmonary micrometastasis model (GW-39iv), survival; format: in vivo, nude mice; settings: cells pretreated with Fab′ 10 μg/mol, 100 μg i.v. 1 day after implantation; untreated 42 days
Experimental: FIG. 7 illustrates an exemplary in vivo micrometastasis study. Top, immunohistochemistry of GW-39 tumor sections stained with a nonspecific antibody (left), MN-14 anti-CEACAM5 (middle), and MN-15 anti-CEACAM6 (right) and photographed at 100×. Bottom, survival of nude mice implanted with 30 μL of a 10% suspension of GW-39 human colonic cancer cells. Mice were implanted with cells that were […] for 30 minutes with MN-3-, MN-15-, or hMN-14-Fab′ (10 μg/mol). Mice also received a single 100 μg dose of the same Fab′ 1 day after cell implantation.
In vivo therapy studies—Female athymic nude mice (6 to 8 weeks old) were purchased from TACONIC® (Germantown, N.Y.). Therapy studies were done using our CEACAM5+/CEACAM6+GW-39 intrapulmonary micrometastasis model, GW-39iv (Sharkey et al., J Natl Cancer Inst 1991, 83:627-32; Blumenthal et al., Cancer Res 1992, 52:6036-44). The GW-39 human colonic carcinoma has been maintained as a serially transplanted signet-ring cell cancer line since 1966 (Goldenberg et al., Transplantation 1966, 4:760-4). […] Body weight was monitored weekly and animal survival recorded. Results were analyzed by the Kaplan-Meier estimated survival curves, and significance was determined with the log-rank comparison of survival curves. Median survival time for each treatment group also was determined. […]

tumor cell invasion = assay: Collagen-based invasion assay, cell line panel; design: species or system human
Experimental: Collagen-based invasion assay—The assay was done using CHEMICON® Kit (#ECM551, MILLIPORE®, Billerica, Mass.). Tumor cells at 80% confluence and were serum-starved for 18 to 24 hours before the assay was used. Cells were harvested with 5 mol of 2 mmol/L EDTA/PBS per 100-mm dish and incubated at 37° C. for 5 to 15 minutes. Cells were collected into 10 to 20 mol of quenching medium (serum-free DMEM containing 5% BSA) to inactivate trypsin/EDTA from the harvesting buffer. Cells were pelleted, resuspended in quenching medium (1×10^6 cells/mol), and appropriate antibody Fabs were added to individual cell aliquots. Cell invasion potential was determined as follows. Baseline invasion and invasion in the presence of a chemoattractant (10% FBS) were measured after a 72-hour incubation period at 37° C. in a 5% CO2 incubator. The bottom side of the collagen-coated polycarbonate membrane insert of the invasion chamber was placed in 400 μL of cell stain for 20 minutes at room temperature and washed. The dye was extracted and transferred into a 96-well microtiter plate for colorimetric measurements (A560 nm).

Which “^18F released from the peptide” value [1] does the source give for “DTPA-Gln-Ala-Lys(HSG)-D-Tyr-Lys(HSG)-NH2 ({DTPA}-QAK(HSG)[dY]K(HSG)-NH2; SMILES C[C@H](NC(=O)[C@H](CCC(N)=O)NC(=O)CN(CCN(CCN(CC(=O)O)CC(=O)O)CC(=O)O)CC(=O)O)C(=O)N[C@@H](CCCCNC(=O)CNC(=O)CCC(=O)NCCc1c[nH]cn1)C(=O)N[C@H](Cc1ccc(O)cc1)C(=O)N[C@@H](CCCCNC(=O)CNC(=O)CCC(=O)NCCc1c[nH]cn1)C(N)=O) [^18F-labeled IMP 272]” here?
Its value is “about 17%”.

What about the “^18F retained” value [1] of the same molecule?
Its value is 83%.

What about the “binding to hMN-14×679” value (hMN-14×679) of the same molecule?
Its value is “bound”.

And the “^18F still attached to the peptide” value [2]?
Its value is 42%.

And the “^18F unbound” value [2]?
Its value is 58%.

And the “binding to irrelevant bispecific antibody hMN-14×734” value (hMN-14×734)?
Its value is “did not bind”.

Which Kd (RIIα dimers (DDD)) does the source give for QIEYLAKQIVDNAIQQA [AKAP-IS] here?
The Kd was 0.4 nM.

B1: hMN-14 Fab′: Fab′ of MN-14 in its humanized form, hMN-14 or labetuzumab (antibody, chains of the INN, looked up, V domains shown)
VH: EVQLVESGGGVVQPGRSLRLSCSASGFDFTTYWMSWVRQAPGKGLEWIGEIHPDSSTINYAPSLKDRFTISRDNAKNTLFLQMDSLRPEDTGVYFCASLYFGFPWFAYWGQGTPVTVSS
VL: DIQLTQSPSSLSASVGDRVTITCKASQDVGTSVAWYQQKPGKAPKLLIYWTSTRHTGVPSRFSGSGSGTDFTFTISSLQPEDIATYYCQQYSLYRSFGQGTKVEIK
modifications: Fab′
notes: Fab′ of MN-14 in its humanized form, hMN-14 or labetuzumab
Which results are given for B1?
median survival time [3]: 49 days; effect on tumor cell invasion (tumor cell invasion): had no effect on tumor cell invasion in most cell lines
